Patent CN112010973A (SHANDONG BOAN BIOTECHNOLOGY CO LTD, dated 2020)

Molecular target: T1, 4-1BB蛋白(义翘神州，10041-H08H) (human, UniProt Q07011 24-186)
T1 construct: bought reagent; also called 4-1BB-His蛋白; 4-1BB protein
Test: SPR, BIAcore X100; antibody captured by anti-human IgG Fc on CM5, 4-1BB protein as analyte, 1:1 model

B1: Urelumab (antibody, human IgG4 S228P, kappa, V domains shown)
VH: QVQLQQWGAGLLKPSETLSLTCAVYGGSFSGYYWSWIRQSPEKGLEWIGEINHGGYVTYNPSLESRVTISVDTSKNQFSLKLSSVTAADTAVYYCARDYGPGNYDWYFDLWGRGTLVTVSS
VL: EIVLTQSPATLSLSPGERATLSCRASQSVSSYLAWYQQKPGQAPRLLIYDASNRATGIPARFSGSGSGTDFTLTISSLEPEDFAVYYCQQRSNWPPALTFGGGTKVEIKR
notes: Second positive control antibody, expressed in HEK293 in the same way as Utomilumab
- Kd: 4.87 nM
- koff: 0.00251 s⁻¹
- kon: 516000 M⁻¹ s⁻¹
